# Article PMC2756588
# T1: Boi2, P39969
# T1 sequence (P39969 32-116, looked up): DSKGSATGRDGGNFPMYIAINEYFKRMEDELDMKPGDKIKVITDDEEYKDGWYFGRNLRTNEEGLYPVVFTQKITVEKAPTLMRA
# T2: Bzz1-2, P38822
# T2 sequence (P38822 568-633, looked up): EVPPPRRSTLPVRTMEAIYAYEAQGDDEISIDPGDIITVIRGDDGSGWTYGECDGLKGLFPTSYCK
# T3: Bzz1-1, P38822
# T3 sequence (P38822 478-572, looked up): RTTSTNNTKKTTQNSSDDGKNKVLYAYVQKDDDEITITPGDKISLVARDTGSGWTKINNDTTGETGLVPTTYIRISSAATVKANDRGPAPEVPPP
# T4: Nbp2, Q12163
# T4 sequence (Q12163 103-180, looked up): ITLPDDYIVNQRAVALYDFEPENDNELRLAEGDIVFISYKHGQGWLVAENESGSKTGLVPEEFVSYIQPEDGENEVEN
# T5: Sla1-2, P32790
# T5 sequence (P32790 60-140, looked up): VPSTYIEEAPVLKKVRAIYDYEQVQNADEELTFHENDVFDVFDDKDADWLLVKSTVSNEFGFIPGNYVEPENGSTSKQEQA
# T6: Pex13, P80667
# T6 sequence (P80667 295-386, looked up): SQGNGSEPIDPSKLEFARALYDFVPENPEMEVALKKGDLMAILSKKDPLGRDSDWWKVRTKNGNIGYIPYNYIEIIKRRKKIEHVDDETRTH
# T7: Bud14, P27637
# T7 sequence (P27637 247-328, looked up): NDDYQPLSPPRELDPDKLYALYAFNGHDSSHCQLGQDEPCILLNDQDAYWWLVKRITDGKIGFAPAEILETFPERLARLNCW
# T8: Hse1, P38753
# T8 sequence (P38753 208-285, looked up): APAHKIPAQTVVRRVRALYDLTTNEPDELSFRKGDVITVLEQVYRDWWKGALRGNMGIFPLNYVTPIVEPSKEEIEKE
# T9: Boi1, P38041
# T9 sequence (P38041 1-86, looked up): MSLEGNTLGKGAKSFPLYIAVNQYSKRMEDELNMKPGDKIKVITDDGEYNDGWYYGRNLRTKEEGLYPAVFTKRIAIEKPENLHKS
# T10: Lsb1, P53281
# T10 sequence (P53281 45-122, looked up): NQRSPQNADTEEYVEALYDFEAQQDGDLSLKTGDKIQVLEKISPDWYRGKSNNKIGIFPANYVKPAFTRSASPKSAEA
# T11: Abp1, P15891
# T11 sequence (P15891 535-592, looked up): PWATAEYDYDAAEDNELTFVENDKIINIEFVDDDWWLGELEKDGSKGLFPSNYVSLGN
# T12: Hof1, Q05080
# T12 sequence (Q05080 590-669, looked up): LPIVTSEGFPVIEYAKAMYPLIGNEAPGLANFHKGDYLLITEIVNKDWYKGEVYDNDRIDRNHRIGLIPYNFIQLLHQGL
# T13: Sla1-3, P32790
# T13 sequence (P32790 344-424, looked up): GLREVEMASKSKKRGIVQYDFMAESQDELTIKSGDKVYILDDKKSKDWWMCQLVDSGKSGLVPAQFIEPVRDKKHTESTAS
# T14: Cdc25, P04821
# T14 sequence (P04821 50-136, looked up): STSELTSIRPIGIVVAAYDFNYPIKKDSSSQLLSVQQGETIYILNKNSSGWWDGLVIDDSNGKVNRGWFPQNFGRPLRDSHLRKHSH
# T15: Myo5, Q04439
# T15 sequence (Q04439 1072-1160, looked up): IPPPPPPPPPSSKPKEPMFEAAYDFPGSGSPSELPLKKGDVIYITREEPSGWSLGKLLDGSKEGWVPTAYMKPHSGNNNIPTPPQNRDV
# T16: Lsb4, P32793
# T16 sequence (P32793 402-468, looked up): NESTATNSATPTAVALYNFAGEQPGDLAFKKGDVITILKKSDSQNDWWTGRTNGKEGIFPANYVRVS
# T17: Cyk3, Q07533
# T17 sequence (Q07533 1-83, looked up): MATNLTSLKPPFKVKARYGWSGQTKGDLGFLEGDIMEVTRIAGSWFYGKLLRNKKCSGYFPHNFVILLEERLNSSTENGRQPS
# T18: Fus1, P11710
# T18 sequence (P11710 432-512, looked up): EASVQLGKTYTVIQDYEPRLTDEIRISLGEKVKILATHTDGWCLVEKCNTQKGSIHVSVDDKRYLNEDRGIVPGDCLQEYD
# T19: Pin3, Q06449
# T19 sequence (Q06449 53-122, looked up): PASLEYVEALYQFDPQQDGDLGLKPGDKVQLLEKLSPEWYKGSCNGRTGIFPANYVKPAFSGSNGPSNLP
# T20: Lsb3, P43603
# T20 sequence (P43603 385-451, looked up): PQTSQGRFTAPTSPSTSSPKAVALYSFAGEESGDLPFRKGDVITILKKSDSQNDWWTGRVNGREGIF
# T21: Bbc1, P47068
# T21 sequence (P47068 1-78, looked up): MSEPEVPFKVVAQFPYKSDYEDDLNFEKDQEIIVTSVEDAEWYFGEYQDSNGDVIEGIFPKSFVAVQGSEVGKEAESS
# Target: T1, Boi2, P39969
# Experiment: SPOT array
# Conditions: median of control spots 1161
row,SPOT intensity,Binder
1,0,SRSKPLPLTPNSKYN
2,1,QLMKNLPKIPLLNDI
3,1,RRSKSLPTTPGIRSG

# Target: T2, Bzz1-2, P38822
# Experiment: SPOT array
# Conditions: median of control spots 4538
row,SPOT intensity,Binder
1,4,SRSKPLPLTPNSKYN
2,7,QLMKNLPKIPLLNDI
3,1,RRSKSLPTTPGIRSG

# Target: T3, Bzz1-1, P38822
# Experiment: SPOT array
# Conditions: median of control spots 4446
row,SPOT intensity,Binder
1,2,SRSKPLPLTPNSKYN
2,1,QLMKNLPKIPLLNDI
3,0,RRSKSLPTTPGIRSG

# Target: T4, Nbp2, Q12163
# Experiment: SPOT array
# Conditions: median of control spots 357
row,SPOT intensity,Binder
1,0,SRSKPLPLTPNSKYN
2,10,QLMKNLPKIPLLNDI
3,49,RRSKSLPTTPGIRSG

# Target: Sho1, P40073
# Sequence (P40073 287-367): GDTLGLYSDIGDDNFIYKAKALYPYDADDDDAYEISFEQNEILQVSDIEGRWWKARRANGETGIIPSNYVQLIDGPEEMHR
# Experiment: SPOT array
# Conditions: median of control spots 1148
row,SPOT intensity,Binder
1,1030,SRSKPLPLTPNSKYN
2,861,QLMKNLPKIPLLNDI
3,1350,RRSKSLPTTPGIRSG

# Target: T5, Sla1-2, P32790
# Experiment: SPOT array
# Conditions: median of control spots 712
row,SPOT intensity,Binder
1,3,SRSKPLPLTPNSKYN
2,5,QLMKNLPKIPLLNDI
3,0,RRSKSLPTTPGIRSG

# Target: T6, Pex13, P80667
# Experiment: SPOT array
# Conditions: median of control spots 1341
row,SPOT intensity,Binder
1,21,SRSKPLPLTPNSKYN
2,162,QLMKNLPKIPLLNDI
3,8,RRSKSLPTTPGIRSG

# Target: GST
# Experiment: SPOT array
# Conditions: median of control spots 978
row,SPOT intensity,Binder
1,0,SRSKPLPLTPNSKYN
2,1,QLMKNLPKIPLLNDI
3,0,RRSKSLPTTPGIRSG

# Target: Bem1-1, P29366
# Sequence (P29366 55-141): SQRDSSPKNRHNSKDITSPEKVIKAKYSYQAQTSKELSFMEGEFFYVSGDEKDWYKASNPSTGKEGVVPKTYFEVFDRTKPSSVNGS
# Experiment: SPOT array
# Conditions: median of control spots 4282
row,SPOT intensity,Binder
1,0,SRSKPLPLTPNSKYN
2,5,QLMKNLPKIPLLNDI
3,1,RRSKSLPTTPGIRSG

# Target: T7, Bud14, P27637
# Experiment: SPOT array
# Conditions: median of control spots 956
row,SPOT intensity,Binder
1,5,SRSKPLPLTPNSKYN
2,0,QLMKNLPKIPLLNDI
3,20,RRSKSLPTTPGIRSG

# Target: T8, Hse1, P38753
# Experiment: SPOT array
# Conditions: median of control spots 1727
row,SPOT intensity,Binder
1,1,SRSKPLPLTPNSKYN
2,1,QLMKNLPKIPLLNDI
3,5,RRSKSLPTTPGIRSG

# Target: T9, Boi1, P38041
# Experiment: SPOT array
# Conditions: median of control spots 1162
row,SPOT intensity,Binder
1,2,SRSKPLPLTPNSKYN
2,1,QLMKNLPKIPLLNDI
3,3,RRSKSLPTTPGIRSG

# Target: T10, Lsb1, P53281
# Experiment: SPOT array
# Conditions: median of control spots 388
row,SPOT intensity,Binder
1,0,SRSKPLPLTPNSKYN
2,6,QLMKNLPKIPLLNDI
3,8,RRSKSLPTTPGIRSG

# Target: T11, Abp1, P15891
# Experiment: SPOT array
# Conditions: median of control spots 935
row,SPOT intensity,Binder
1,109,SRSKPLPLTPNSKYN
2,76,QLMKNLPKIPLLNDI
3,229,RRSKSLPTTPGIRSG

# Target: T12, Hof1, Q05080
# Experiment: SPOT array
# Conditions: median of control spots 4086
row,SPOT intensity,Binder
1,0,SRSKPLPLTPNSKYN
2,11,QLMKNLPKIPLLNDI
3,0,RRSKSLPTTPGIRSG

# Target: T13, Sla1-3, P32790
# Experiment: SPOT array
# Conditions: median of control spots 5475
row,SPOT intensity,Binder
1,7,SRSKPLPLTPNSKYN
2,2,QLMKNLPKIPLLNDI
3,26,RRSKSLPTTPGIRSG

# Target: T14, Cdc25, P04821
# Experiment: SPOT array
# Conditions: median of control spots 969
row,SPOT intensity,Binder
1,2,SRSKPLPLTPNSKYN
2,0,QLMKNLPKIPLLNDI
3,17,RRSKSLPTTPGIRSG

# Target: T15, Myo5, Q04439
# Experiment: SPOT array
# Conditions: median of control spots 471
row,SPOT intensity,Binder
1,0,SRSKPLPLTPNSKYN
2,68,QLMKNLPKIPLLNDI
3,0,RRSKSLPTTPGIRSG

# Target: Bem1-2, P29366
# Sequence (P29366 139-227): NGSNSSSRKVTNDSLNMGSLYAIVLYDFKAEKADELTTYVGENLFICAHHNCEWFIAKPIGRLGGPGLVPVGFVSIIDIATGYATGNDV
# Experiment: SPOT array
# Conditions: median of control spots 4347
row,SPOT intensity,Binder
1,1,SRSKPLPLTPNSKYN
2,0,QLMKNLPKIPLLNDI
3,0,RRSKSLPTTPGIRSG

# Target: T16, Lsb4, P32793
# Experiment: SPOT array
# Conditions: median of control spots 397
row,SPOT intensity,Binder
1,2,SRSKPLPLTPNSKYN
2,41,QLMKNLPKIPLLNDI
3,2,RRSKSLPTTPGIRSG

# Target: Rvs167, P39743
# Sequence (P39743 419-482): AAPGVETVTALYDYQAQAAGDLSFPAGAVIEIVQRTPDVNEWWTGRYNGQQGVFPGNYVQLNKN
# Experiment: SPOT array
# Conditions: median of control spots 2707
row,SPOT intensity,Binder
1,1,SRSKPLPLTPNSKYN
2,0,QLMKNLPKIPLLNDI
3,0,RRSKSLPTTPGIRSG

# Target: T17, Cyk3, Q07533
# Experiment: SPOT array
# Conditions: median of control spots 1451
row,SPOT intensity,Binder
1,1,SRSKPLPLTPNSKYN
2,0,QLMKNLPKIPLLNDI
3,0,RRSKSLPTTPGIRSG

# Target: T18, Fus1, P11710
# Experiment: SPOT array
# Conditions: median of control spots 1200
row,SPOT intensity,Binder
1,0,SRSKPLPLTPNSKYN
2,0,QLMKNLPKIPLLNDI
3,63,RRSKSLPTTPGIRSG

# Target: T19, Pin3, Q06449
# Experiment: SPOT array
# Conditions: median of control spots 2171
row,SPOT intensity,Binder
1,19,SRSKPLPLTPNSKYN
2,78,QLMKNLPKIPLLNDI
3,5,RRSKSLPTTPGIRSG

# Target: Myo3, P36006
# Experiment: SPOT array
# Conditions: median of control spots 468
row,SPOT intensity,Binder
1,0,SRSKPLPLTPNSKYN
2,72,QLMKNLPKIPLLNDI
3,12,RRSKSLPTTPGIRSG

# Target: T20, Lsb3, P43603
# Experiment: SPOT array
# Conditions: median of control spots 406
row,SPOT intensity,Binder
1,0,SRSKPLPLTPNSKYN
2,21,QLMKNLPKIPLLNDI
3,1,RRSKSLPTTPGIRSG

# Target: T21, Bbc1, P47068
# Experiment: SPOT array
# Conditions: median of control spots 796
row,SPOT intensity,Binder
1,5,SRSKPLPLTPNSKYN
2,0,QLMKNLPKIPLLNDI
3,19,RRSKSLPTTPGIRSG
